By stoichiometry N is commonly meant a count of units in the complex or per binding partner.

The target of assay [1] is WIV1 S Foldon his (prefusion stabilized spike ectodomain) (sarbecovirus WIV1 (clade 1a) | bacteriophage T4). Nature of the assay: native gel or EMSA.
Assay [2] addresses SHC014 S Foldon his (prefusion stabilized spike ectodomain) (sarbecovirus SHC014 (clade 1a) | bacteriophage T4). Nature of the assay: native gel or EMSA. (A gel shift assay detects complexes by their altered migration in electrophoresis.)

As for “WIV1 S Foldon his (prefusion stabilized spike ectodomain) (domain or fragment)”, the stoichiometry N in assay [1] is 3.
On to “SHC014 S Foldon his (prefusion stabilized spike ectodomain) (domain or fragment)”, for which the stoichiometry N in assay [2] worked out at 3.

(Values after publication PMC11068555.)
